Measured values from patent US10597674B2, “HPPD variants and methods of use” (BASF Agricultural Solutions Seed, US LLC, priority 2015, dated 2020).
Where two headings read alike, the source gives them in different places.

System: HPPD polypeptides (wild-type SEQ ID NO:1 and mutants)
Conditions: high substrate concentration; for Residual activity: kapp normalized to kapp without inhibitor; for Residual turnover: total change in signal normalized to no inhibitor
[1] = in the presence of Cmpd. 1, 15 μM inhibitor
[2] = in the presence of Cmpd. 2, 15 μM inhibitor
[3] = in the presence of diketonitrile (DKN), 60 μM inhibitor
[4] = in the presence of mesotrione (MST), 60 μM inhibitor

Structure (SMILES): CSc1c(C(F)(F)F)ccc(C(=O)Nc2nnnn2C)c1Cl [Cmpd. 1, 2-chloro-3-(methylsulfanyl)-N-(1-methyl-1H-tetrazol-5-yl)-4-(trifluoromethyl)benzamide, reference compound]
- Residual activity [1]: 6%
- Residual turnover [1]: 6%
- Residual activity [2]: 8%
- Residual turnover [2]: 8%
- Residual activity [3]: 7%
- Residual turnover [3]: 8%
- Residual activity [4]: 6%
- Residual turnover [4]: 8%
